Measurements taken from patent US20260209320A1 (ALCHEMAB THERAPEUTICS, published 2026).

What was measured:
Peptide 4 [1] = target: T1, Peptide 4 (human, cyno); assay: peptide microarray; Sp H; IgG 1 µg/ml
T1 peptide: QQQQQPPPPPPPPPP

Peptide 9 [2] = target: T2, Peptide 9 (human); assay: peptide microarray; Sp H; IgG 1 µg/ml
T2 peptide: AQPLLPQPQPPPPPP

Peptide 1 [3] = target: T3, Peptide 1 (human, cyno); assay: peptide microarray; Sp H; IgG 1 µg/ml
T3 peptide: QQQQQQQQPPPPPPP

Peptide 16 [4] = target: T4, Peptide 16 (human); assay: peptide microarray; Sp H; IgG 1 µg/ml
T4 peptide: PQPPPPPPPPPPGPA

Peptide 7 [5] = target: T5, Peptide 7 (human); assay: peptide microarray; Sp H; IgG 1 µg/ml
T5 peptide: PQAQPLLPQPQPPPP

Peptide 17 [6] = target: T6, Peptide 17 (human); assay: peptide microarray; Sp H; IgG 1 µg/ml
T6 peptide: QPPPPPPPPPPGPAV

Peptide 12 [7] = target: T7, Peptide 12 (human); assay: peptide microarray; Sp H; IgG 1 µg/ml
T7 peptide: LLPQPQPPPPPPPPP

Peptide 10 [8] = target: T8, Peptide 10 (human); assay: peptide microarray; Sp H; IgG 1 µg/ml
T8 peptide: QPLLPQPQPPPPPPP

Peptide 2 [9] = target: T9, Peptide 2 (human, cyno); assay: peptide microarray; Sp H; IgG 1 µg/ml
T9 peptide: QQQQQQQPPPPPPPP

Epitope 1 [10] = target: T10, Epitope 1 (human, cyno); assay: peptide microarray; Sp H; IgG 1 µg/ml
T10 peptide: QQQQPPPPPPPPPPP

Peptide 11 [11] = target: T11, Peptide 11 (human); assay: peptide microarray; Sp H; IgG 1 µg/ml
T11 peptide: PLLPQPQPPPPPPPP

Peptide 3 [12] = target: T12, Peptide 3 (human, cyno); assay: peptide microarray; Sp H; IgG 1 µg/ml
T12 peptide: QQQQQQPPPPPPPPP

Peptide 8 [13] = target: T13, Peptide 8 (human); assay: peptide microarray; Sp H; IgG 1 µg/ml
T13 peptide: QAQPLLPQPQPPPPP

Peptide 13 [14] = target: T14, Peptide 13 (human); assay: peptide microarray; Sp H; IgG 1 µg/ml
T14 peptide: LPQPQPPPPPPPPPP

Peptide 4 [15] = target: T1, Peptide 4; assay: peptide microarray; Sp H; IgG 10 µg/ml
Peptide 9 [16] = target: T2, Peptide 9; assay: peptide microarray; Sp H; IgG 10 µg/ml
Peptide 1 [17] = target: T3, Peptide 1; assay: peptide microarray; Sp H; IgG 10 µg/ml
Peptide 16 [18] = target: T4, Peptide 16; assay: peptide microarray; Sp H; IgG 10 µg/ml
Peptide 7 [19] = target: T5, Peptide 7; assay: peptide microarray; Sp H; IgG 10 µg/ml
Peptide 17 [20] = target: T6, Peptide 17; assay: peptide microarray; Sp H; IgG 10 µg/ml
Peptide 12 [21] = target: T7, Peptide 12; assay: peptide microarray; Sp H; IgG 10 µg/ml
Peptide 10 [22] = target: T8, Peptide 10; assay: peptide microarray; Sp H; IgG 10 µg/ml
Peptide 2 [23] = target: T9, Peptide 2; assay: peptide microarray; Sp H; IgG 10 µg/ml
Epitope 1 [24] = target: T10, Epitope 1; assay: peptide microarray; Sp H; IgG 10 µg/ml
Peptide 11 [25] = target: T11, Peptide 11; assay: peptide microarray; Sp H; IgG 10 µg/ml
Peptide 3 [26] = target: T12, Peptide 3; assay: peptide microarray; Sp H; IgG 10 µg/ml
Peptide 8 [27] = target: T13, Peptide 8; assay: peptide microarray; Sp H; IgG 10 µg/ml
Peptide 13 [28] = target: T14, Peptide 13; assay: peptide microarray; Sp H; IgG 10 µg/ml
Peptide 1 [29] = target: T3, Peptide 1; assay: peptide microarray; Sp C1; IgG 10 µg/ml
Peptide 2 [30] = target: T9, Peptide 2; assay: peptide microarray; Sp C1; IgG 10 µg/ml
Peptide 18 [31] = target: T15, Peptide 18 (cyno); assay: peptide microarray; Sp C1; IgG 10 µg/ml
T15 peptide: QQQPPPPPPPPPPPP

Peptide 3 [32] = target: T12, Peptide 3; assay: peptide microarray; Sp C1; IgG 10 µg/ml
Peptide 22 [33] = target: T16, Peptide 22 (cyno); assay: peptide microarray; Sp C1; IgG 10 µg/ml
T16 peptide: QPMLPQPQPPPPPPR

Peptide 4 [34] = target: T1, Peptide 4; assay: peptide microarray; Sp C1; IgG 1 µg/ml
Peptide 1 [35] = target: T3, Peptide 1; assay: peptide microarray; Sp C1; IgG 1 µg/ml
Peptide 2 [36] = target: T9, Peptide 2; assay: peptide microarray; Sp C1; IgG 1 µg/ml
Peptide 21 = target: T17, Peptide 21 (cyno); assay: peptide microarray; Sp C1; IgG 1 µg/ml
T17 peptide: AQPMLPQPQPPPPPP

Epitope 1 [37] = target: T10, Epitope 1; assay: peptide microarray; Sp C1; IgG 1 µg/ml
Peptide 18 [38] = target: T15, Peptide 18; assay: peptide microarray; Sp C1; IgG 1 µg/ml
Peptide 3 [39] = target: T12, Peptide 3; assay: peptide microarray; Sp C1; IgG 1 µg/ml
Peptide 22 [40] = target: T16, Peptide 22; assay: peptide microarray; Sp C1; IgG 1 µg/ml
[41] = target: T18, Mutant Human HTT Exon 1 48Q (GST) (human); assay: ELISA
T18 construct: recombinant His- and GST-tagged fusion; also called HTT Exon 1 Q48; 48Q HTT Exon-1
T18 sequence (chain, as listed by the source mutant limits assumed): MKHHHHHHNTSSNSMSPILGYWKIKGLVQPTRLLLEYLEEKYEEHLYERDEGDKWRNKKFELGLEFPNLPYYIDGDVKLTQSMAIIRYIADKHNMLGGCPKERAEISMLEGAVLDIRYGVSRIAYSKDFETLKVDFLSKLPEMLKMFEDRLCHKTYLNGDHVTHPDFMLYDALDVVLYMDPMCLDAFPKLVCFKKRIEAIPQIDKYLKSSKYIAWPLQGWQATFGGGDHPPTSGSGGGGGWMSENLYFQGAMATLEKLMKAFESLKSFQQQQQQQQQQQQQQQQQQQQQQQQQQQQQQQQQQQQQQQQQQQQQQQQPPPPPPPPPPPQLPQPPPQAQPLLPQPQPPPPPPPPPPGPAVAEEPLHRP

B1: ATL_0005335 (antibody, V domains shown)
VH: EVQLVESGGGLVKPGGSLRLSCAASGFTFNKAWMNWVRQAPGKGLEWVGRIKSGIDGGTTDYAAPVQGRFTISRDDSKNTVYLQMNSLNTEDTAVYYCIPPPYYYYYGLDVWGQGTTVTVSS
VL: QSALTQPASVSGSPGQSITISCTGTSSDIGSYNLVSWYQQHPGNAPKPLIYEGSKRPSGVSARFSGSKSGNTASLTISGLQPEDEADYYCSSYAGFNTLVFGGGTKVTVL
notes: human IgG1; also called ATL_5335
- corrected fluorescence intensity (Peptide 4 [1]): 409
- corrected fluorescence intensity (Peptide 9 [2]): 622
- corrected fluorescence intensity (Peptide 1 [3]): 0
- corrected fluorescence intensity (Peptide 16 [4]): 77.5
- corrected fluorescence intensity (Peptide 7 [5]): 0
- corrected fluorescence intensity (Peptide 17 [6]): 0
- corrected fluorescence intensity (Peptide 12 [7]): 932
- corrected fluorescence intensity (Peptide 10 [8]): 845
- corrected fluorescence intensity (Peptide 2 [9]): 417
- corrected fluorescence intensity (Epitope 1 [10]): 293
- corrected fluorescence intensity (Peptide 11 [11]): 936
- corrected fluorescence intensity (Peptide 3 [12]): 626
- corrected fluorescence intensity (Peptide 8 [13]): 434
- corrected fluorescence intensity (Peptide 13 [14]): 1130
- corrected fluorescence intensity (Peptide 4 [15]): 3680
- corrected fluorescence intensity (Peptide 9 [16]): 3470
- corrected fluorescence intensity (Peptide 1 [17]): 729
- corrected fluorescence intensity (Peptide 16 [18]): 415
- corrected fluorescence intensity (Peptide 7 [19]): 326
- corrected fluorescence intensity (Peptide 17 [20]): 166
- corrected fluorescence intensity (Peptide 12 [21]): 8520
- corrected fluorescence intensity (Peptide 10 [22]): 5410
- corrected fluorescence intensity (Peptide 2 [23]): 2100
- corrected fluorescence intensity (Epitope 1 [24]): 3840
- corrected fluorescence intensity (Peptide 11 [25]): 6680
- corrected fluorescence intensity (Peptide 3 [26]): 3190
- corrected fluorescence intensity (Peptide 8 [27]): 1510
- corrected fluorescence intensity (Peptide 13 [28]): 9010
- corrected fluorescence intensity (Peptide 1 [29]): 0
- corrected fluorescence intensity (Peptide 2 [30]): 2230
- corrected fluorescence intensity (Peptide 18 [31]): 4510
- corrected fluorescence intensity (Peptide 3 [32]): 3540
- corrected fluorescence intensity (Peptide 22 [33]): 374
- corrected fluorescence intensity (Peptide 4 [34]): 536
- corrected fluorescence intensity (Peptide 1 [35]): 381
- corrected fluorescence intensity (Peptide 2 [36]): 667
- corrected fluorescence intensity (Peptide 21): 443
- corrected fluorescence intensity (Epitope 1 [37]): 391
- corrected fluorescence intensity (Peptide 18 [38]): 474
- corrected fluorescence intensity (Peptide 3 [39]): 520
- corrected fluorescence intensity (Peptide 22 [40]): 82
- binding result [41]: binds

B2: ATL_0005331 (antibody, V domains shown)
VH: B1 VH
VL: QSALTQPRSVSGSPGQSITISCTGTSSDVGSYNLVSWFQQHPGKAPKLIIYEVNKRPSGVPDRFSGSKSGNTASLTVSGLQAEDEADYYCGSYAGTNNVFGTGTKLTVL
notes: human IgG1; also called ATL_5331; Human IgG1 ATL_0005331
- corrected fluorescence intensity (Peptide 4 [1]): 238
- corrected fluorescence intensity (Peptide 9 [2]): 229
- corrected fluorescence intensity (Peptide 1 [3]): 131
- corrected fluorescence intensity (Peptide 16 [4]): 90.2
- corrected fluorescence intensity (Peptide 7 [5]): 0
- corrected fluorescence intensity (Peptide 17 [6]): 85.5
- corrected fluorescence intensity (Peptide 12 [7]): 374
- corrected fluorescence intensity (Peptide 10 [8]): 274
- corrected fluorescence intensity (Peptide 2 [9]): 197
- corrected fluorescence intensity (Epitope 1 [10]): 291
- corrected fluorescence intensity (Peptide 11 [11]): 280
- corrected fluorescence intensity (Peptide 3 [12]): 276
- corrected fluorescence intensity (Peptide 8 [13]): 260
- corrected fluorescence intensity (Peptide 13 [14]): 373
- corrected fluorescence intensity (Peptide 4 [15]): 2620
- corrected fluorescence intensity (Peptide 9 [16]): 1260
- corrected fluorescence intensity (Peptide 1 [17]): 0
- corrected fluorescence intensity (Peptide 16 [18]): 145
- corrected fluorescence intensity (Peptide 7 [19]): 119
- corrected fluorescence intensity (Peptide 17 [20]): 16.2
- corrected fluorescence intensity (Peptide 12 [21]): 3490
- corrected fluorescence intensity (Peptide 10 [22]): 2250
- corrected fluorescence intensity (Peptide 2 [23]): 1340
- corrected fluorescence intensity (Epitope 1 [24]): 2950
- corrected fluorescence intensity (Peptide 11 [25]): 2950
- corrected fluorescence intensity (Peptide 3 [26]): 1670
- corrected fluorescence intensity (Peptide 8 [27]): 1140
- corrected fluorescence intensity (Peptide 13 [28]): 3960
- corrected fluorescence intensity (Peptide 1 [29]): 378
- corrected fluorescence intensity (Peptide 2 [30]): 1760
- corrected fluorescence intensity (Peptide 18 [31]): 3100
- corrected fluorescence intensity (Peptide 3 [32]): 2290
- corrected fluorescence intensity (Peptide 22 [33]): 112
- corrected fluorescence intensity (Peptide 4 [34]): 136
- corrected fluorescence intensity (Peptide 1 [35]): 0
- corrected fluorescence intensity (Peptide 2 [36]): 118
- corrected fluorescence intensity (Peptide 21): 182
- corrected fluorescence intensity (Epitope 1 [37]): 195
- corrected fluorescence intensity (Peptide 18 [38]): 137
- corrected fluorescence intensity (Peptide 3 [39]): 206
- corrected fluorescence intensity (Peptide 22 [40]): 91
- binding result [41]: binds
